Where no end group is shown, it is not given here.
Key:
Test in all cases: AlphaScreen or HTRF
[1] = molecular target: T1, GST-PSD95(1–392) (UniProt P31016 1-392)
[2] = molecular target: T1, GST-PSD95(1–392); remark: listed apart in the source
[3] = molecular target: His-PSD95(1–392) (UniProt P31016 1-392)

B1: His-nNOS(1–299) (domain or fragment, UniProt P29476-1 1-299, looked up)
chain: MEENTFGVQQIQPNVISVRLFKRKVGGLGFLVKERVSKPPVIISDLIRGGAAEQSGLIQAGDIILAVNDRPLVDLSYDSALEVLRGIASETHVVLILRGPEGFTTHLETTFTGDGTPKTIRVTQPLGPPTKAVDLSHQPSASKDQSLAVDRVTGLGNGPQHAQGHGQGAGSVSQANGVAIDPTMKSTKANLQDIGEHDELLKEIEPVLSILNSGSKATNRGGPAKAEMKDTGIQVDRDLDGKSHKAPPLGGDNDRVFNDLWGKDNVPVILNNPYSEKEQSPTSGKQSPTKNGSPSRCPR
B1 gave an EC50 [1] of 30 nM.

B2: nNOS(1–130) without any tag (domain or fragment, UniProt P29476-1 1-130, looked up)
chain: MEENTFGVQQIQPNVISVRLFKRKVGGLGFLVKERVSKPPVIISDLIRGGAAEQSGLIQAGDIILAVNDRPLVDLSYDSALEVLRGIASETHVVLILRGPEGFTTHLETTFTGDGTPKTIRVTQPLGPPT
B2 showed an IC50 [2] of 30 nM.

B3: Biot-ErbB4(1289–1308) (peptide, UniProt Q15303 1289-1308, looked up)
peptide: SLKPGTVLPPPPYRHRNTVV
modifications: not fully specified (N-terminus); also: biotin (position not given here)
B3 gave an EC50 [3] of 10 nM.
